Data as given in article PMC10940162.

Assays:
[1] = molecular target: porcine brain tubulin (microtubules) (porcine)
[2] = molecular target: porcine brain tubulin (microtubules) (porcine); assay: in vitro reconstitution with TIRF microscopy; microtubules nucleated from and anchored at γ-TuC (GCP3–GFP) held by anti-GFP nanobody; 25 µM tubulin, 80 mM KCl, MRB80, 30 °C; 5 nM SNAP–AF647–CAMSAP3, 5 nM SNAP–AF647–CAMSAP1 or 40 nM mCherry–CAMSAP2; scored over 10 min
[3] = molecular target: γ-tubulin-containing complexes (complete and incomplete γ-TuRC) purified using GCP3–GFP–SII (human (endogenous in HEK293T)) (UniProt Q96CW5); assay: single-molecule colocalisation by TIRF microscopy; NPF pre-incubated with γ-TuC–GFP or GFP control ('Premix'), then held on the coverslip by biotinylated anti-GFP nanobody; without tubulin
[4] = molecular target: γ-tubulin-containing complexes (complete and incomplete γ-TuRC) purified using GCP3–GFP–SII (human (endogenous in HEK293T)) (UniProt Q96CW5); assay: single-molecule colocalisation by TIRF microscopy; γ-TuC–GFP held on the coverslip by biotinylated anti-GFP nanobody; with free tubulin (17.5 µM, 50 mM KCl, 30 °C); the sentence does not tell whether the NPF was premixed
[5] = molecular target: γ-tubulin-containing complexes (complete and incomplete γ-TuRC) purified using GCP3–GFP–SII (human (endogenous in HEK293T)) (UniProt Q96CW5)
[6] = molecular target: γ-tubulin-containing complexes (complete and incomplete γ-TuRC) purified using GCP3–GFP–SII (human (endogenous in HEK293T)) (UniProt Q96CW5); assay: single-molecule colocalisation by TIRF microscopy; NPF pre-incubated with γ-TuC–GFP in solution ('Premix'), then held on the coverslip by biotinylated anti-GFP nanobody; with 17.5 µM tubulin, 50 mM KCl, MRB80, 30 °C
[7] = molecular target: porcine brain tubulin (microtubules) (porcine); assay: in vitro reconstitution with TIRF microscopy; as a7 with 5 nM SNAP–AF647–CAMSAP3 and 30 nM mCherry–CDK5RAP2 (pre-incubated with γ-TuC)
[8] = molecular target: porcine brain tubulin (microtubules) (porcine); remark: listed apart in the source
[9] = molecular target: porcine brain tubulin (microtubules) (porcine); assay: in vitro reconstitution with TIRF microscopy; microtubules nucleated from and anchored at γ-TuC (GCP3–GFP) held by anti-GFP nanobody; 25 µM tubulin, 80 mM KCl, MRB80, 30 °C; 5 nM SNAP–AF647–CAMSAP3, 5 nM SNAP–AF647–CAMSAP1 or 40 nM mCherry–CAMSAP2; scored over 10 min; remark: listed apart in the source
[10] = molecular target: porcine brain tubulin (microtubules) (porcine); assay: in vitro reconstitution with TIRF microscopy; as a7 with 5 nM SNAP–AF647–CAMSAP3 and 200 nM chTOG–mCherry (not premixed)
[11] = molecular target: porcine brain tubulin (microtubules) (porcine); assay: in vitro reconstitution with TIRF microscopy; as a7 with 5 nM SNAP–AF647–CAMSAP3 and 30 nM mCherry–CLASP2 (pre-incubated with γ-TuC)
[12] = molecular target: γ-tubulin-containing complexes (complete and incomplete γ-TuRC) purified using GCP3–GFP–SII (human (endogenous in HEK293T)) (UniProt Q96CW5); assay: single-molecule colocalisation by TIRF microscopy; γ-TuC–GFP held on the coverslip by biotinylated anti-GFP nanobody; with free tubulin (17.5 µM, 50 mM KCl, 30 °C); the sentence does not tell whether the NPF was premixed; remark: listed apart in the source
[13] = molecular target: γ-tubulin-containing complexes (complete and incomplete γ-TuRC) purified using GCP3–GFP–SII (human (endogenous in HEK293T)) (UniProt Q96CW5); assay: single-molecule colocalisation by TIRF microscopy; NPF pre-incubated with γ-TuC–GFP or GFP control ('Premix'), then held on the coverslip by biotinylated anti-GFP nanobody; without tubulin; remark: listed apart in the source

Sequence of UniProt Q96CW5 (Q96CW5 whole entry, looked up, one chain of several): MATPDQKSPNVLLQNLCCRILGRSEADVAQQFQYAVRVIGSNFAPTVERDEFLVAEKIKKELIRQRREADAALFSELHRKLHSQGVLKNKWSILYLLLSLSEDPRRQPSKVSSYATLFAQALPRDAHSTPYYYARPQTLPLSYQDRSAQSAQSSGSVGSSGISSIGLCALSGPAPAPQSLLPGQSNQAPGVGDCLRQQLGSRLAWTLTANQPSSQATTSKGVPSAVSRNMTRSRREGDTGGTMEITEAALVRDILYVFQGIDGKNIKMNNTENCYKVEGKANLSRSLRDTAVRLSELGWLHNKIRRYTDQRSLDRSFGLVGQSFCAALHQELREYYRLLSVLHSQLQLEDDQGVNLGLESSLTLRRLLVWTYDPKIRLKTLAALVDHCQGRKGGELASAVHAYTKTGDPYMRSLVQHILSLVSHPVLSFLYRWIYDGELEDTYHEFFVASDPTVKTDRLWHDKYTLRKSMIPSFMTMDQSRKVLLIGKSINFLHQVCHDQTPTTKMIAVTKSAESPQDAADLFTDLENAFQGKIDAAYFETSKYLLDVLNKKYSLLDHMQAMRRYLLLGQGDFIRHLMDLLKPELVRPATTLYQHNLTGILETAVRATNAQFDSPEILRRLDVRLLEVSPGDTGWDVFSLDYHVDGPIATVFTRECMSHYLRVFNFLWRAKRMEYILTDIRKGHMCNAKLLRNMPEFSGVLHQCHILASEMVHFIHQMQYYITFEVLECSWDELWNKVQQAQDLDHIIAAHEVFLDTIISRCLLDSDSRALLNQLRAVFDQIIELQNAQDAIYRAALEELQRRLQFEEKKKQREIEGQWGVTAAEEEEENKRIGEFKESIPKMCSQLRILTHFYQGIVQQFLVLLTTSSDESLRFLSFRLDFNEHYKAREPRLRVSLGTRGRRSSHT

SNAP–AF647–CAMSAP1 (from UniProt Q5T5Y3 1-1602) (natural protein)
γ-TuC displacement frequency (microtubules released among γ-TuC-anchored minus ends colocalizing with the CAMSAP) [1]: 5%
percent of γ-TuC-nucleated microtubules with CAMSAP at the minus end [2]: 25%

chTOG–mCherry (from UniProt Q14008 1-2032) (natural protein)
percent of chTOG-positive puncta colocalizing with γ-TuC [3]: 28%
percent of chTOG-positive puncta colocalizing with γ-TuC [4]: 6%

mCherry–CDK5RAP2 (from UniProt Q96SN8 1-1893) (natural protein)
microtubule nucleation efficiency of γ-TuC (percent of γ-TuCs nucleating within 10 min), mCherry–CDK5RAP2 pre-incubated with γ-TuCs [5]: 35%
percent of CDK5RAP2-positive puncta colocalizing with γ-TuCs [3]: 41%
percent of γ-TuCs colocalizing with CDK5RAP2 [3]: 30%
percent of CDK5RAP2-positive puncta colocalizing with γ-TuCs [4]: 13%
percent of γ-TuCs colocalizing with CDK5RAP2 [6]: 38%

B1: SNAP–AF647–CAMSAP3 (natural protein)
chain: MVEAAPAGSGPLRRTFLVPEIKSLDQYDFSRAKAAASLAWVLRAAFGGAEHVPPELWEPFYTDQYAQEHVKPPVTRLLLSAELYCRAWRQALPQLEPSPSPSALLALLARRGTVPSLPEHPVREADLKHQPILMGAHLAVIDALMVAFSFEWTKTLPGPLALSSLEHKLLFWVDTTVRRLQEKTEQEAAQRASPAAPLDGASPAQPSIRYRKDRAIARRAPCFPNVTTLQDLASGAALAATIHCYCPQLLRLEEVCLKDPMSVADSLYNLQLVQDFCASHLPRGCPLSLEDLLYVPPPLKVNLVVLLAEMYMCFEVLKPDFVQAKDLPDGHAVSPRNTETVPSQNNSGSSSPVFNFRHPLLSPGGPQSPLRGSTGSLKSSPSMSHMEALGKAWNRQLSRPLSQAVSFSTPFGLDSDVDVVMGDPVLLRSVSSDSLGPPRPVSTSSRNSAQPAPESGDLPTIEEALQIIHSAEPRLLPDGAADGSFYLHSPEGLSKPPLSPYPPEGASKPLSDRLNKAPIYISHPENPSKSSPCSTGEILKPPPPSEGSPKAVASSPAANNSEVKMTSFAERKKQLVKAEAESGLGSPTSTPVAPEALSSEMSELGARLEEKRRAIEAQKRRIEAIFAKHRQRLGKSAFLQVQPREAAGEAEEEAELGSVPGGERPAGEGQGEPSLRHKSVTFSPDLGPVPPEGLGDYNRAVSKLSAALSSLQRDMQRLTDQQQRLLAPPEAPGPAPPPAAWVIPGPATGPKAASPSPARRAPAARRSPGPGPSPTPRSPKHARPAELKLAPLTRVLTPPHDVDSLPHLRKFSPSQVPVQTRSSILLSEGTPPEEPTTKPALIEIPLASLGEPAADEEGDGSPPGAEDSLEEEASSEGEPRSGLGFFYKDEDKPEDEMAQKRASLLERQQRRVEEARRRKQWQEAEKEQKREEAARLAQEAPGLAFTTPVVASAAPVATLAPTTRAMAPAEEEVGPRRGDFTRLEYERRAQLKLMDDLDKVLRPRASGTGGPGRGGRRATRPRSGCCDDSALARSPARGLLGSRLSKVYSQSTLSLSTVANEAPNNLGVKRPTSRAPSPSGLMSPSRLPGSRERDWENGSNASSPASVPEYTGPRLYKEPSAKSNKFIIHNALSHCCLAGKVNEPQKNRILEEIEKSKANHFLILFRDSSCQFRALYTLSGETEELSRLAGYGPRTVTPAMVEGIYKYNSDRKRFTQIPAKTMSMSVDAFTIQGHLWQSKKPTTPKKGGGTPK
modifications: Alexa Fluor 647 dye on the SNAP tag
percent of γ-TuC-nucleated microtubules with CAMSAP at the minus end [7]: 3%
percentage of microtubules released from γ-TuCs with SNAP–AF647–CAMSAP3 [8]: 15%
percent of γ-TuC-nucleated microtubules with CAMSAP at the minus end [9]: 30%
percent of γ-TuC-nucleated microtubules with CAMSAP at the minus end [10]: 25%
γ-TuC displacement frequency (microtubules released among γ-TuC-anchored minus ends colocalizing with the CAMSAP) [1]: 40%
percent of γ-TuC-nucleated microtubules with CAMSAP at the minus end [11]: 35%

B2: mCherry–CAMSAP2 (natural protein)
chain: MGDAADPREMRKTFIVPAIKPFDHYDFSRAKIACNLAWLVAKAFGTENVPEELQEPFYTDQYDQEHIKPPVVNLLLSAELYCRAGSLILKSDAAKPLLGHDAVIQALAQKGLYVTDQEKLVTERDLHKKPIQMSAHLAMIDTLMMAYTVEMVSIEKVIACAQQYSAFFQATDLPYDIEDAVMYWINKVNEHLKDIMEQEQKLKEHHTVEAPGGQKSPSKWFWKLVPARYRKEQTLLKQLPCIPLVENLLKDGTDGCALAALIHFYCPDVVRLEDICLKETMSLADSLYNLQLIQEFCQEYLNQCCHFTLEDMLYAASSIKSNYLVFMAELFWWFEVVKPSFVQPRVVRPQGAEPVKDMPSIPVLNAAKRNVLDSSSDFPSSGEGATFTQSHHHLPSRYSRPQAHSSASGGIRRSSSMSYVDGFIGTWPKEKRSSVHGVSFDISFDKEDSVQRSTPNRGITRSISNEGLTLNNSHVSKHIRKNLSFKPINGEEEAESIEEELNIDSHSDLKSCVPLNTNELNSNENIHYKLPNGALQNRILLDEFGNQIETPSIEEALQIIHDTEKSPHTPQPDQIANGFFLHSQEMSILNSNIKLNQSSPDNVTDTKGALSPITDNTEVDTGIHVPSEDIPETMDEDSSLRDYTVSLDSDMDDASKFLQDYDIRTGNTREALSPCPSTVSTKSQPGSSASSSSGVKMTSFAEQKFRKLNHTDGKSSGSSSQKTTPEGSELNIPHVVAWAQIPEETGLPQGRDTTQLLASEMVHLRMKLEEKRRAIEAQKKKMEAAFTKQRQKMGRTAFLTVVKKKGDGISPLREEAAGAEDEKVYTDRAKEKESQKTDGQRSKSLADIKESMENPQAKWLKSPTTPIDPEKQWNLASPSEETLNEGEILEYTKSIEKLNSSLHFLQQEMQRLSLQQEMLMQMREQQSWVISPPQPSPQKQIRDFKPSKQAGLSSAIAPFSSDSPRPTHPSPQSSNRKSASFSVKSQRTPRPNELKITPLNRTLTPPRSVDSLPRLRRFSPSQVPIQTRSFVCFGDDGEPQLKESKPKEEVKKEELESKGTLEQRGHNPEEKEIKPFESTVSEVLSLPVTETVCLTPNEDQLNQPTEPPPKPVFPPTAPKNVNLIEVSLSDLKPPEKADVPVEKYDGESDKEQFDDDQKVCCGFFFKDDQKAENDMAMKRAALLEKRLRREKETQLRKQQLEAEMEHKKEETRRKTEEERQKKEDERARREFIRQEYMRRKQLKLMEDMDTVIKPRPQVVKQKKQRPKSIHRDHIESPKTPIKGPPVSSLSLASLNTGDNESVHSGKRTPRSESVEGFLSPSRCGSRNGEKDWENASTTSSVASGTEYTGPKLYKEPSAKSNKHIIQNALAHCCLAGKVNEGQKKKILEEMEKSDANNFLILFRDSGCQFRSLYTYCPETEEINKLTGIGPKSITKKMIEGLYKYNSDRKQFSHIPAKTLSASVDAITIHSHLWQTKRPVTPKKLLPTKA
percent of γ-TuC-nucleated microtubules with CAMSAP at the minus end [9]: 15%
γ-TuC displacement frequency (microtubules released among γ-TuC-anchored minus ends colocalizing with the CAMSAP) [1]: 90%

B3: mCherry–CLASP2 (natural protein)
chain: MAMGDDKSFDDEESVDGNRPSSAASAFKVPAPKTSGNPANSARKPGSAGGPKVGGASKEGGAGAVDEDDFIKAFTDVPSIQIYSSRELEETLNKIREILSDDKHDWDQRANALKKIRSLLVAGAAQYDCFFQHLRLLDGALKLSAKDLRSQVVREACITVAHLSTVLGNKFDHGAEAIVPTLFNLVPNSAKVMATSGCAAIRFIIRHTHVPRLIPLITSNCTSKSVPVRRRSFEFLDLLLQEWQTHSLERHAAVLVETIKKGIHDADAEARVEARKTYMGLRNHFPGEAETLYNSLEPSYQKSLQTYLKSSGSVASLPQSDRSSSSSQESLNRPFSSKWSTANPSTVAGRVSAGSSKASSLPGSLQRSRSDIDVNAAAGAKAHHAAGQSVRSGRLGAGALNAGSYASLEDTSDKLDGTASEDGRVRAKLSAPLAGMGNAKADSRGRSRTKMVSQSQPGSRSGSPGRVLTTTALSTVSSGVQRVLVNSASAQKRSKIPRSQGCSREASPSRLSVARSSRIPRPSVSQGCSREASRESSRDTSPVRSFQPLASRHHSRSTGALYAPEVYGASGPGYGISQSSRLSSSVSAMRVLNTGSDVEEAVADALKKPARRRYESYGMHSDDDANSDASSACSERSYSSRNGSIPTYMRQTEDVAEVLNRCASSNWSERKEGLLGLQNLLKNQRTLSRVELKRLCEIFTRMFADPHGKRVFSMFLETLVDFIQVHKDDLQDWLFVLLTQLLKKMGADLLGSVQAKVQKALDVTRESFPNDLQFNILMRFTVDQTQTPSLKVKVAILKYIETLAKQMDPGDFINSSETRLAVSRVITWTTEPKSSDVRKAAQSVLISLFELNTPEFTMLLGALPKTFQDGATKLLHNHLRNTGNGTQSSMGSPLTRPTPRSPANWSSPLTSPTNTSQNTLSPSAFDYDTENMNSEDIYSSLRGVTEAIQNFSFRSQEDMNEPLKRDSKKDDGDSMCGGPGMSDPRAGGDATDSSQTALDNKASLLHSMPTHSSPRSRDYNPYNYSDSISPFNKSALKEAMFDDDADQFPDDLSLDHSDLVAELLKELSNHNERVEERKIALYELMKLTQEESFSVWDEHFKTILLLLLETLGDKEPTIRALALKVLREILRHQPARFKNYAELTVMKTLEAHKDPHKEVVRSAEEAASVLATSISPEQCIKVLCPIIQTADYPINLAAIKMQTKVIERVSKETLNLLLPEIMPGLIQGYDNSESSVRKACVFCLVAVHAVIGDELKPHLSQLTGSKMKLLNLYIKRAQTGSGGADPTTDVSGQS
percent colocalization with γ-TuC [12]: 72%
percent colocalization with γ-TuC [13]: 72%
